The target of experiment [1] is Cub fusion of mature GENOMES UNCOUPLED 4 (GUN4) (Arabidopsis thaliana) (UniProt Q9LX31).
For experiment [2] the target is unchanged. The source holds these as a separate data set.

Here are results for one substance from PMC7083845.

UniProt Q9LX31, sequence (Q9LX31 70-265): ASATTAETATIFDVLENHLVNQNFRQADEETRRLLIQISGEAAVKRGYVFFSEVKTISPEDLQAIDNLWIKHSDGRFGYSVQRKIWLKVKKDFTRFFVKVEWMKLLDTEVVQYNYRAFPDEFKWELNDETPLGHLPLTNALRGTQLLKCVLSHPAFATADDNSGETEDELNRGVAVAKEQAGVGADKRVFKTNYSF

In experiment [1], “NubG-BCM1 (mature BALANCE of CHLOROPHYLL METABOLISM 1) (natural protein)” showed an in vitro MgCh activity in 0.15 mM β-DM: 1 μM purified His-BCM1 against assays without BCM1 or with 1 μM GST of 3 fold; an in vitro MgCh activity with His-GUN4 and the three MgCh subunits: yeast membranes holding His-BCM1 against control membranes without BCM1 of 12%. The in vitro MgCh activity (MgP formed, HPLC) of recombinant MgCh subunits with His-GUN4: thylakoids from BCM1-OX3/gun4-1 against thylakoids from bcm1-3 gun4-1 seedlings in experiment [2] stood at 12%.
